9 molecules from patent publication US7012128B2, “Interaction between cyclin D1 and steroid receptor co-activators and uses thereof in assays” (TopoTarget UK Limited, priority 1998, dated 2006) can be followed below.

Sequences and labels used below:
B1: D1: amino acids 1-202: carboxyl-terminal deletion mutant of cyclin D1 (protein, UniProt P24385 1-202, looked up, fragment)
chain: MEHQLLCCEVETIRRAYPDANLLNDRVLRAMLKAEETCAPSVSYFKCVQKEVLPSMRKIVATWMLEVCEEQKCEEEVFPLAMNYLDRFLSLEPVKKSRLQLLGATCMFVASKMKETIPLTAEKLCIYTDNSIRPEELLQMELLLVNKLKWNLAAMTPHDFIEHFLSKMPEAEENKQIIRKHAQTFVALCATDVKFISNPPSM
B2: cyclin D3: D-type cyclin lacking the leucine-rich motif (protein, UniProt P30281 1-292, looked up)
G1/S-specific cyclin-D3: MELLCCEGTRHAPRAGPDPRLLGDQRVLQSLLRLEERYVPRASYFQCVQREIKPHMRKMLAYWMLEVCEEQRCEEEVFPLAMNYLDRYLSCVPTRKAQLQLLGAVCMLLASKLRETTPLTIEKLCIYTDHAVSPRQLRDWEVLVLGKLKWDLAAVIAHDFLAFILHRLSLPRDRQALVKKHAQTFLALCATDYTFAMYPPSMIATGSIGAAVQGLGACSMSGDELTELLAGITGTEVDCLRACQEQIEAALRESLREASQTSSSPAPKAPRGSSSQGPSQTSTPTDVTAIHL
B3: cyclin D2: D-type cyclin lacking the leucine-rich motif (protein, UniProt P30279 1-289, looked up)
G1/S-specific cyclin-D2: MELLCHEVDPVRRAVRDRNLLRDDRVLQNLLTIEERYLPQCSYFKCVQKDIQPYMRRMVATWMLEVCEEQKCEEEVFPLAMNYLDRFLAGVPTPKSHLQLLGAVCMFLASKLKETSPLTAEKLCIYTDNSIKPQELLEWELVVLGKLKWNLAAVTPHDFIEHILRKLPQQREKLSLIRKHAQTFIALCATDFKFAMYPPSMIATGSVGAAICGLQQDEEVSSLTCDALTELLAKITNTDVDCLKACQEQIEAVLLNSLQQYRQDQRDGSKSEDELDQASTPTDVRDIDL

The target of the first assay is T1, GST-SRC1 (361-1441) and His-tagged cyclin D1 (Homo sapiens, UniProt P24385).
T1 construct: 6X histidine; made in house; host or cells: E. coli
T1 sequence (P24385 whole entry): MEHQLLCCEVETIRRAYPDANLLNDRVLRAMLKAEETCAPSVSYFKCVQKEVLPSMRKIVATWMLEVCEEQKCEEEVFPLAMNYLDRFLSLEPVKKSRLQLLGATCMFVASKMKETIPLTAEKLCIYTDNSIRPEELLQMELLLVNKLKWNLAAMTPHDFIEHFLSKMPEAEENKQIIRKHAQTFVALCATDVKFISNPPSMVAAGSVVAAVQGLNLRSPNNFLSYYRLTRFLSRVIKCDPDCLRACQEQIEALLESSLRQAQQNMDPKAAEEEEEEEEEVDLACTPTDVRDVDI
The assay can be described thus: GST pull down peptide competition assay. The class given is binding. The settings on record: 0.3 μg and 3 μg peptide; Western blot with anti-cyclin D1 antibody. As to the method:
To ask whether the LXXLL (SEQ ID NO:6) motifs of SRC-1 are involved in cyclin D1 binding, a peptide competition experiment was performed. Peptides (0.3 μg and 3 μg) derived from the four LXXLL motifs of SRC1 were used in a GST pull down assay using GST-SRC1 (361-1441) and His-tagged cyclin D1 as described above. […] The reduction in binding was greater with 3 μg than with 0.3 μg of each of the LXXLL (SEQ ID NO:6) peptides with no reduction shown with the LXXAA (SEQ ID NO:21)mutant peptide. […] In another experiment, the ability of peptides to compete with cyclin D1 for binding to GST-SRC1 was investigated. Increasing amounts (100, 200 and 500 nM) of AASKHKQLSELLRSG (SEQ ID NO:1) (LXXLL (SEQ ID NO:6)) and AASKHKQLSEAARSG (SEQ ID NO:23) (LXXAA) (SEQ ID NO:21) peptides were used in a GST pull down assay using GST-SRC1 (361-1441) and His-tagged cycliin D1.
GST protein, GST-SRC1 fusion protein and His-tagged cyclin D1 protein were purified as described previously (Zwijsen et al., 1997). Binding between 500 ng GST-SRC1 and 100 ng His-D1 was performed in binding buffer (50 mM NaCl, 50 mM HEPES-KOH pH 7.6, […] 0.1% (w/v) NP40, 0.1 mM PMSF and 0.5% charcoal-stripped serum) bound to glutathione-sepharose for 1 hour at 4° C. The beads were washed three times and bound proteins were eluted by boiling for 10 minutes in sample buffer and separated on 10% SDS-PAGE. The binding of His-cyclin D1 to GST-SRC1 was detected by Western blot analysis using monoclonal antibodies directed against cyclin D1 (DCS-6, Neomarkers). For testing a ternary complex, a baculovirus-produced ER (750 ng, Pan Vera) was added to GST-SRC1 (500 ng) and His-D1 (100 ng) in the presence or absence of 1 μM 17β-estradiol using similar conditions as described above. In Western blot analysis monoclonal antibodies directed against cyclin D1 (DCS-6, Neomarkers) and ER (LH2, Novocastra) were used.
For the peptide inhibition assay using the peptides shown in FIG. 4(B), 150 ng GST/GST-SRC1 and 50 ng His-tagged cyclin D1 were used. […]
Background: Immunoblotting shows a protein as a band on a membrane.
On to “LXXAA mutant peptide: LXXAA mutant control peptide of the SRC-1 peptide competition experiment, FIG. 4B (PQAQQKSLQQAAT; listed as Homo sapiens) [reference compound]”, for which the “interference with binding of cyclin D1 to SRC-1” value was “no reduction”.
As to “P3: peptide which corresponds to the third of the three centrally located LXXLL motifs of SRC-1 (KDHQLLRYLLDKDE; listed as Homo sapiens)”, the “interference with binding of cyclin D1 to SRC-1” value is recorded as “best competitor”.

The assay is the same for the next values; noted with them: 100, 200 and 500 nM peptide.
With “AASKHKQLSELLRSG [LXXLL peptide derived from p300 amino acid 74-88]”, the “competition with cyclin D1 for binding to GST-SRC1” value is recorded as “Binding was reduced with increasing concentration”.

The test system of a further assay is wild type ER. The assay can be described thus: ERE-TATA-luciferase transactivation of wild type ER in COS-7 cells. The settings on record: COS-7, wild type ER, presence of ligand. The assay is classed as cell-based. As to the method:
FIG. 1. Mapping of the region of cyclin D1 required for ER-mediated transactivation. • (A) The effect of cyclin D1 deletion mutants on ER activation in the presence of ligand. The cyclin D1 derivatives used in this study are shown in the left panel; right side of Figure represents the relative capacity of the mutants to potentiate ERE-dependent transcription. ER-negative COS-7 cells were transfected with expression vectors for wild type ER (200 ng), cyclin D1 or cyclin D1 mutants (2.5 μg), an internal control §-galactosidase plasmid (0.5 μg) and an ERE-TATA-luciferase reporter (3 μg). The effect on ER transactivation of wild type cyclin D1 was set to 100%. These studies were performed in three separate experiments and expressed as mean values with standard deviation less then […]. The alignment of leucine-rich motif of ER with D-type cyclins are shown on the bottom; the leucine-rich motif in cyclin D1 is indicated as a dark box. The identifiers for the sequences shown are as follows: Cyclin D1 (SEQ ID NO:11), Estrogen receptor (SEQ ID NO:12), the Cyclin D2 (SEQ ID NO:13), and the Cyclin D3 (SEQ ID NO:14). • (B) ER activation by D-type cyclins, cyclin D1 L254/255A point mutant (D1-LALA) and SRC-1 in the presence of ligand. COS-7 cells were transfected with D-type cyclin expression vectors, cyclin D1 Leucine-to-Alanine point mutant (D1-LALA) or SRC-1 expression vector together with wild type ER expression vector, an ERE-TATA-luciferase reporter plasmid and the internal control β-galactosidase construct. Data are expressed as relative luciferase activity compared with basal ERE-luciferase activity of wild type ER and are normalized for transfection efficiencies.
FIG. 3. Role of coactivators in cyclin D1—induced transactivation. • (A) Effect of a dominant negative form of SRC-1 (SRC1-DN) on ER transactivation. SRC1-DN encoding amino acids 1245-1441 of SRC-1 (1, 2.5 and 5 μg) was introduced by transient transfection together with wild type ER (200 ng) and was tested for its ability to modulate ERE-dependent transcription. • (B) Effect of SRCI-DN on SRC-1 and TIF 2 mediated ER transactivation. SRC-1 (3 μg) or TIF-2 (3 μg) were transfected with SRC1-DN (3 μg) and tested for ER transactivation. • (C) Effect of SRC1-DN on cyclin D1-induced transactivation of ER 1-535 mutant. Cyclin D1 was cotransfected with SRC1-DN (1, 2.5, 5 μg) and tested for its effect on an ER harboring a deletion of coactivator binding site in helix 12 (ER 1-535). • (D) Effect of SRC1-DN on cyclin D1-induced transactivation of ER L543/544A mutant. Cyclin D1 and SRC1-DN (1, 2.5, 5 gg) were transfected and tested for the activity of ER helix 12 point mutant (ER L543/544A). The transient transfections (A-C) were performed in COS-7 cells, which were maintained in DMEM with 10 nM ligand. The relative activity was calculated by normalizing to the internal control and was divided by luciferase activity of ER (mutant) in the presence of ligand. The transfection for each set of conditions were done at least in four independent experiments and expressed as average ±SD.
To study how cyclin D1 activates ER, cyclin D1 deletion mutants were tested for their effect on ER-transactivation. COS-7 cells were transfected with cyclin D1 mutants, together with ER and a luciferase reporter gene construct driven by a minimal TATA promoter linked to an estrogen response element (ERE). […] This part of the protein is not involved in CDK interaction and is poorly conserved among the different cyclins. […] To test the relevance of this leucine-rich domain of cyclin D1 in ER activation, a cyclin D1 mutant was constructed in which leucines 254 and 255 were mutated to alanines (D1 L254/255A). This mutation in cyclin D1 is similar to the mutation in ER (ER L543/544A) that interferes with coactivator binding to AF-2 (Danielian et al., 1992). […]
Regarding “D1: amino acids 1-247: carboxyl-terminal deletion mutant of cyclin D1”, the ER transactivation capacity entry is “lack ER transactivation capacity”.
Regarding “D1: amino acids 1-267: cyclin D1 mutant lacking the extreme carboxyl-terminus”, the ER transactivation capacity result was “partially retained ER activation”.
On the same count and under the same terms, for “D1: amino acids 91-295: amino-terminal deletion mutant of cyclin D1” the value was “still able to activate ER”; for B1, “lack ER transactivation capacity”; for B2, “behaved similar-to the D1 L254/255A mutant”.
Regarding B3, the ER transactivation capacity result is “behaved similar-to the D1 L254/255A mutant”.
